Test system: colorectal carcinoma MC38
Assay: Example 7.2.1: MC38 subcutaneous xenograft, marketed PD-1 inhibitors and 2′,3′-cGAMP
Type: in vivo, mouse
Details: intratumor injection; PD-1 antibody 10 mg/kg, 2′,3′-cGAMP 1 mg/kg; every other day, 3 times
Protocol: Tumor cells were cultured and passaged, cells were collected at the logarithmic phase, and formulated into a concentration of (1.0×10^7) per milliliter of cell suspension with 0.1 ml (with a cell number of 1.0×10^6) being injected into the right flank of the mice, the tumor grew to a diameter of about 5 mm within about 10 days, and the model was successfully established, they were randomly divided into 8 groups with 8 mice per group.
Trend of changes in body weight and tumor volume of mice, survival rate of mice, and inhibitory rate of anatomical tumor weight.
Drug interaction coefficient: CDI(CI)=AB/A*B. AB is the ratio of the combination group of two drugs to the control group, as calculated based on the anatomical tumor weight. A or B is the ratio of single drug group to control group.
After successfully establishing a subcutaneous xenograft tumor model of colorectal carcinoma MC38 in mice, they were randomly grouped with 6-8 mice per group and administered once every two days, a total of 3 times.

| Molecule | IRTW % (tumor weight inhibitory rate) [%] | Tumor Weight [g] |
| --- | --- | --- |
| Tislelizumab: marketed PD-1 monoclonal antibody (antibody, chains of the INN, looked up) heavy: QVQLQESGPGLVKPSETLSLTCTVSGFSLTSYGVHWIRQPPGKGLEWIGVIYADGSTNYNPSLKSRVTISKDTSKNQVSLKLSSVTAADTAVYYCARAYGNYWYIDVWGQGTTVTVSSASTKGPSVFPLAPCSRSTSESTAALGCLVKDYFPEPVTVSWNSGALTSGVHTFPAVLQSSGLYSLSSVVTVPSSSLGTKTYTCNVDHKPSNTKVDKRVESKYGPPCPPCPAPPVAGGPSVFLFPPKPKDTLMISRTPEVTCVVVAVSQEDPEVQFNWYVDGVEVHNAKTKPREEQFNSTYRVVSVLTVVHQDWLNGKEYKCKVSNKGLPSSIEKTISKAKGQPREPQVYTLPPSQEEMTKNQVSLTCLVKGFYPSDIAVEWESNGQPENNYKTTPPVLDSDGSFFLYSKLTVDKSRWQEGNVFSCSVMHEALHNHYTQKSLSLSLG light: DIVMTQSPDSLAVSLGERATINCKSSESVSNDVAWYQQKPGQPPKLLINYAFHRFTGVPDRFSGSGYGTDFTLTISSLQAEDVAVYYCHQAYSSPYTFGQGTKLEIKRTVAAPSVFIFPPSDEQLKSGTASVVCLLNNFYPREAKVQWKVDNALQSGNSQESVTEQDSKDSTYSLSSTLTLSKADYEKHKVYACEVTHQGLSSPVTKSFNRGEC | 61.4 | 0.59 |
| Camrelizumab: marketed PD-1 monoclonal antibody (antibody, chains of the INN, looked up, V domains shown) VH: EVQLVESGGGLVQPGGSLRLSCAASGFTFSSYMMSWVRQAPGKGLEWVATISGGGANTYYPDSVKGRFTISRDNAKNSLYLQMNSLRAEDTAVYYCARQLYYFDYWGQGTTVTVSS VL: DIQMTQSPSSLSASVGDRVTITCLASQTIGTWLTWYQQKPGKAPKLLIYTATSLADGVPSRFSGSGSGTDFTLTISSLQPEDFATYYCQQVYSIPWTFGGGTKVEIK | 19.6 | 1.23 |
